B1: KRT18 (parent)
chain: RVRSLETENRRLESKIREHLEKKG
B2: PKD2L1 (parent)
chain: VFIFYYVVEEILELHIHRLRYLSS
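Note: lentivirally expressed fusions sorted by FACS into six bins by GFP to DsRed ratio, PSI derived from sequencing read proportions per bin multiplied by bin number.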

Variants of B1 are the subject of one series. The experiment in a line: protein stability index of a GFP-peptide fusion (GPS, HEK-293T) (PSI 1-6); higher = more stable. Conditions: c terminus: a fixed tail appended.
For the variant RVRSLETENRRLESKIREHLEKSG [K23S], the protein stability index came out at 4.52. Still for that read-out and setting: to RVRSLETENRRLESKIREHLEKTG [K23T] belongs 4.22.

For RVRSLETENRRLESKIREHLEKQG [K23Q], the protein stability index worked out at 4.32. With RVRSLETENRRLESKIREHLEKFG [K23F], the protein stability index turned out to be 3.76.

As to RVRSLETENRRLESKIREHLEKDG [K23D], the protein stability index stood at 5.45. On the same count and under the same terms, with RVRSLETENRRLESKIREHLEKGG [K23G] the figure was 4.75. On the same count and under the same terms, with RVRSLETENRRLESKIREHLEKVG [K23V] the figure was 4.14. The same measure, in the same setting: with RVRSLETENRRLESKIREHLEKCG [K23C] the figure was 3.86; with RVRSLETENRRLESKIREHLEKHG [K23H], 3.96; with RVRSLETENRRLESKIREHLEKAG [K23A], 4.56.

For RVRSLETENRRLESKIREHLEKLG [K23L], the protein stability index came to 3.87. The same measure, in the same setting: with RVRSLETENRRLESKIREHLEKIG [K23I] the figure was 3.2; with RVRSLETENRRLESKIREHLEKNG [K23N], 4.78. Still for that read-out and setting: to RVRSLETENRRLESKIREHLFKKG [E21F] belongs 3.67; to RVRSLETENRRLESKIREHLNKKG [E21N], 4.11.

With RVRSLETENRRLESKIREHLAKKG [E21A], the protein stability index turned out to be 4.21. On the same count and under the same terms, with RVRSLETENRRLESKIREHLSKKG [E21S] the figure was 4.36; with RVRSLETENRRLESKIREHLRKKG [E21R], 3.99; with RVRSLETENRRLESKIREHLKKKG [E21K], 3.75.

Consider RVRSLETENRRLESKIREHLVKKG [E21V], for which the protein stability index was 3.93.

Turning to RVRSLETENRRLESKIREHLGKKG [E21G], the protein stability index was found to be 4.62. On the same count and under the same terms, to RVRSLETENRRLESKIREHLMKKG [E21M] belongs 4.15. Still for that read-out and setting: with RVRSLETENRRLESKIREHLLKKG [E21L] the figure was 3.19. Still for that read-out and setting: to RVRSLETENRRLESKIREHLHKKG [E21H] belongs 4.43; to RVRSLETENRRLESKIREHLCKKG [E21C], 4.28; to RVRSLETENRRLESKIREHLWKKG [E21W], 3.32. In the case of RVRSLETENRRLESKIREHLTKKG [E21T], the protein stability index came to 4.2. The same measure, in the same setting: with RVRSLETENRRLESKIREHLDKKG [E21D] the figure was 4.98; with RVRSLETENRRLESKIREHLQKKG [E21Q], 3.74. Turning to RVRSLETENRRLESKIREHLIKKG [E21I], the protein stability index came to 3.9. Take RVRSLETENRRLESKIREHLESKG [K22S]: the protein stability index came out at 4.05. With RVRSLETENRRLESKIREHLELKG [K22L], the protein stability index turned out to be 4.12.

RVRSLETENRRLESKIREHLEMKG [K22M]: the protein stability index came to 3.73. The same measure, in the same setting: to RVRSLETENRRLESKIREHLEAKG [K22A] belongs 3.65. On the same count and under the same terms, with RVRSLETENRRLESKIREHLECKG [K22C] the figure was 4.61; with RVRSLETENRRLESKIREHLENKG [K22N], 4.09.

For the variant RVRSLETENRRLESKIREHLERKG [K22R], the protein stability index amounted to 4.21. Still for that read-out and setting: to RVRSLETENRRLESKIREHLETKG [K22T] belongs 4.45; to RVRSLETENRRLESKIREHLEFKG [K22F], 4.16. Still for that read-out and setting: to RVRSLETENRRLESKIREHLEPKG [K22P] belongs 4.82; to RVRSLETENRRLESKIREHLEIKG [K22I], 3.85; to RVRSLETENRRLESKIREHLEWKG [K22W], 3.02.

On to RVRSLETENRRLESKIREHLEQKG [K22Q], for which the protein stability index came out at 4.89. Still for that read-out and setting: with RVRSLETENRRLESKIREHLEEKG [K22E] the figure was 4.86.

Turning to RVRSLETENRRLESKIREHLEGKG [K22G], the protein stability index is 4.06. Still for that read-out and setting: to RVRSLETENRRLESKIREHLEVKG [K22V] belongs 4.52; to RVRSLETENRRLESKIREHLEYKG [K22Y], 4.08. On to RVRSLETENRRLESKIREHLEKKC [G24C], for which the protein stability index was 3.69. In the case of RVRSLETENRRLESKIREHLEKKR [G24R], the protein stability index stood at 3.81. Still for that read-out and setting: to RVRSLETENRRLESKIREHLEKKL [G24L] belongs 4.03; to RVRSLETENRRLESKIREHLEKKW [G24W], 4.04.

Turning to RVRSLETENRRLESKIREHLEKKP [G24P], the protein stability index was 4.13. On the same count and under the same terms, with RVRSLETENRRLESKIREHLEKKN [G24N] the figure was 4.61; with RVRSLETENRRLESKIREHLEKKV [G24V], 4.01. Same read-out and setting: with RVRSLETENRRLESKIREHLEKKM [G24M] the figure was 3.73; with RVRSLETENRRLESKIREHLEKKD [G24D], 4.87. Still for that read-out and setting: with RVRSLETENRRLESKIREHLEKKI [G24I] the figure was 3.83; with RVRSLETENRRLESKIREHLEKKH [G24H], 4.48. Regarding RVRSLETENRRLESKIREHLEKKK [G24K], the protein stability index is 4.57. Still for that read-out and setting: with RVRSLETENRRLESKIREHLEKKY [G24Y] the figure was 3.92; with RVRSLETENRRLESKIREHLEKKQ [G24Q], 4.14; with RVRSLETENRRLESKIREHLEKKF [G24F], 3.56.

In the case of RVRSLETENRRLESKIREHWEKKG [L20W], the protein stability index stood at 3.95. Same read-out and setting: to RVRSLETENRRLESKIREHSEKKG [L20S] belongs 5.44; to RVRSLETENRRLESKIREHREKKG [L20R], 5.23. Still for that read-out and setting: to RVRSLETENRRLESKIREHTEKKG [L20T] belongs 4.99; to RVRSLETENRRLESKIREHVEKKG [L20V], 4.94.

Variants of B2 are the subject of a further series. Described as above. The note with it: c terminus: a fixed tail appended.
For the variant VHIFYYVVEEILELHIHRLRYLSS [F2H], the protein stability index is 1.63. On the same count and under the same terms, to VMIFYYVVEEILELHIHRLRYLSS [F2M] belongs 4.81. Still for that read-out and setting: with VIIFYYVVEEILELHIHRLRYLSS [F2I] the figure was 3.92; with VQIFYYVVEEILELHIHRLRYLSS [F2Q], 3.67. The same measure, in the same setting: to VPIFYYVVEEILELHIHRLRYLSS [F2P] belongs 2; to VRIFYYVVEEILELHIHRLRYLSS [F2R], 3.23. On to VYIFYYVVEEILELHIHRLRYLSS [F2Y], for which the protein stability index was found to be 3.06. Still for that read-out and setting: to VEIFYYVVEEILELHIHRLRYLSS [F2E] belongs 1.5. The same measure, in the same setting: with VKIFYYVVEEILELHIHRLRYLSS [F2K] the figure was 2.56; with VGIFYYVVEEILELHIHRLRYLSS [F2G], 3.34; with VSIFYYVVEEILELHIHRLRYLSS [F2S], 2.65. With VNIFYYVVEEILELHIHRLRYLSS [F2N], the protein stability index worked out at 3.7. Still for that read-out and setting: with VLIFYYVVEEILELHIHRLRYLSS [F2L] the figure was 2.11; with VTIFYYVVEEILELHIHRLRYLSS [F2T], 3.77.

On to VAIFYYVVEEILELHIHRLRYLSS [F2A], for which the protein stability index was found to be 1.52. Regarding YFIFYYVVEEILELHIHRLRYLSS [V1Y], the protein stability index is 2.76.

In the case of PFIFYYVVEEILELHIHRLRYLSS [V1P], the protein stability index worked out at 2.44.

Take LFIFYYVVEEILELHIHRLRYLSS [V1L]: the protein stability index is 2.15.

Turning to HFIFYYVVEEILELHIHRLRYLSS [V1H], the protein stability index amounted to 2.21. On the same count and under the same terms, to CFIFYYVVEEILELHIHRLRYLSS [V1C] belongs 1.97.

With NFIFYYVVEEILELHIHRLRYLSS [V1N], the protein stability index amounted to 2.89. The same measure, in the same setting: with SFIFYYVVEEILELHIHRLRYLSS [V1S] the figure was 1.97. As to RFIFYYVVEEILELHIHRLRYLSS [V1R], the protein stability index was 2.23. Same read-out and setting: with WFIFYYVVEEILELHIHRLRYLSS [V1W] the figure was 2.35; with GFIFYYVVEEILELHIHRLRYLSS [V1G], 3; with FFIFYYVVEEILELHIHRLRYLSS [V1F], 1.49. Still for that read-out and setting: with KFIFYYVVEEILELHIHRLRYLSS [V1K] the figure was 2.63.

(Values after the supplement of paper PMC10567573.)
